Experimental data: US20060051832A1, “Modified sarcosine oxidase, process for producing the same and reagent composition using the same” (Toyo Boseki Kabushiki Kaisha, priority 2002, published 2006)
Substitutions are numbered along the chain they refer to. In names and notes the source's numbering stands.

Experiments:
[1] = test system: Arthrobacter sp. TE1826 modified sarcosine oxidases of Example 3B (SEQ ID NO:1 variants); experiment: Km of modified sarcosine oxidases of Example 3B compared with unmodified; format: biochemical; settings: modified vs unmodified; nearly equal to or within 1.5 times
Procedure: (§1) • 100 mM Tris-HCl buffer (pH 8.0) (containing 200 mM sarcosine and 0.1% Triton X-100) • 0.1% 4-aminoantipyrine • 0.1% phenol • 25 U/mL peroxidase <Measurement Condition>
(§2) A reaction mixture is prepared by mixing the above Tris-HCl buffer, 4-aminoantipyrine solution, phenol solution and peroxidase solution at a ratio of 5:1:2:2. The reaction mixture (1 mL) is taken to a test tube, preliminarily warmed at 37° C. for about 5 min, and 0.05 mL of an enzyme solution is added to start the reaction. The reaction at 37° C. is performed accurately for 10 min, then 2.0 mL of an aqueous solution of 0.25% SDS is added to stop the reaction, and an absorbance at 500 nm of this solution is measured. In a blind test, distilled water instead of the enzyme solution is added to the reagent mixture, and the same manipulation is followed to measure the absorbance. […] The reactivity to proline was measured as a relative ratio of activities when sarcosine in the above reagent was replaced by L-proline at the same concentration.
(§3) Various sarcosine oxidases obtained in Example 3B and Comparative Example 1 were evaluated.
(§4) Action on proline was calculated from a relative ratio (%) of the enzyme activity using L-proline as the substrate to the enzyme activity suing sarcosine as the substrate in the above activity measurement method. […]

[2] = substrate: CNCC(=O)O; experiment: Km of modified sarcosine oxidase SAOM3B; format: biochemical, Arthrobacter sp. TE1826; settings: other: SAOM3B, K322R, 37° C., pH 8.0
Procedure: as §1
as §2, with “concentration. […]” for “concentration.”
as §3, §4

[3] = substrate: CNCC(=O)O; experiment: Km of modified sarcosine oxidase SAOM4B; format: biochemical, Arthrobacter sp. TE1826; settings: other: SAOM4B, 37° C., pH 8.0
Procedure: as §1
as §2, with “concentration. […]” for “concentration.”
as §3, §4

Molecule: CNCC(=O)O [sarcosine]
- Km value for sarcosine relative to the Km value of the unmodified sarcosine oxidase [1]: ≤ 1.5 times

B1: Arthrobacter sp. TE1826 sarcosine oxidase (SEQ ID NO:1) variant SAOM3B, K322R (Arthrobacter sp. TE1826; K322R) (protein)
chain: MSIKKDYDVIVVGAGSMGMAAGYYLSKQGVKTLLVDSFHPPHTNGSHHGDTRIIRHAYGEGREYVPFALRAQELWYELEKETHHKIFTKTGVLVFGPKGEAPFVAETMEAAKEHSLDVDLLEGSEINKRWPGVTVPENYNAIFEKNSGVLFSENCIRAYRELAEANGAKVLTYTPVEDFEIAEDFVKIQTAYGSFTASKLIVSMGAWNSKLLSKLNIEIPLQPYRQVVGFFECDEKKYSNTHGYPAFMVEVPTGIYYGFPSFGGCGLKIGYHTYGQKIDPDTINREFGIYPEDEGNIRKFLETYMPGATGELKSGDVCMYTRTPDEHFVIDLHPQFSNVAIAAGFSGHGFKFSSVVGETLSQLAVTGKTEHDISIFSINRPALKQKETI
- Km [2]: 4.7 mM mM

B2: Arthrobacter sp. TE1826 sarcosine oxidase (SEQ ID NO:1) variant SAOM4B, V94G, E250Q (Arthrobacter sp. TE1826; E250Q/V94G) (protein)
chain: B1 chain with V94G, E250Q, R322K
- Km [3]: 3.4 mM mM
